Test results published in article PMC7959530.

Biological target: asialofetuin (UniProt P12763)
Assay: ELISA

Sequence of UniProt P12763 (P12763 19-359): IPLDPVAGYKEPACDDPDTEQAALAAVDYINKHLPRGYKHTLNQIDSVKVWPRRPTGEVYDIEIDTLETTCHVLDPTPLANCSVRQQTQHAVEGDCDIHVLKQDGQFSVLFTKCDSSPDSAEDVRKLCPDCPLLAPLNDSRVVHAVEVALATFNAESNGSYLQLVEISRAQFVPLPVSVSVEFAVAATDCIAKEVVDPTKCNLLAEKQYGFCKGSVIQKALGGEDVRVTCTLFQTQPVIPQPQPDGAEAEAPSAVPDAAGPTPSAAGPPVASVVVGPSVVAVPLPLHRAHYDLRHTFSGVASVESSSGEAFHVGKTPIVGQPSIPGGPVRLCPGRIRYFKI

- EC50: 140 nM
Substance: PX-Gal3_(Δ116) (fusion protein of APEX2 and galectin-3 lacking the N-terminal domain) (domain or fragment)
